Measurements published in article PMC3210814.
Where a chain is given by its changes, count along the chain named. In names and notes the source's numbering stands.

B1: recombinant SdPI peptide (scorpion-derived protease inhibitor), wild type (peptide)
chain: KNKCQLPSDVGKGKASFTRYYYNEEGGKCETFIYGGVGGNSNNFLTKEDCCRECAQGSC
B2: SdPI Ala15Phe mutant (peptide)
chain: B1 chain with A15F
B3: SdPI G13F mutant (peptide)
chain: B1 chain with G13F
B4: SdPI K12A mutant (peptide)
chain: B1 chain with K12A

Experiments:
[1] = biological target: bovine pancreatic trypsin (bovine); experiment: enzyme inhibition assay (chromogenic substrate), inhibition against inhibitor concentration; trypsin 400 nM incubated with 0 to 400 nM rSdPI for 30 min; 100 mM Tris-HCl pH 8.0, 10 mM CaCl2, 25°C
Chain of bovine pancreatic trypsin (bovine) (P00760 24-246): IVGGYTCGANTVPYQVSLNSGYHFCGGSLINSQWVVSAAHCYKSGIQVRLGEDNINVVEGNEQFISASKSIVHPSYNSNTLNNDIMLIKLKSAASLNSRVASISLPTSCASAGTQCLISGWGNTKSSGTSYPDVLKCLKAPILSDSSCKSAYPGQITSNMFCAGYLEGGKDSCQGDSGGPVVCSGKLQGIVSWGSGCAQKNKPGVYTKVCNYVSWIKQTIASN

[2] = biological target: bovine pancreatic trypsin (bovine); experiment: enzyme inhibition assay (chromogenic substrate), Lineweaver-Burk plots and replot of the slopes; trypsin 400 nM pre-incubated with the inhibitor for 30 min; 100 mM Tris-HCl pH 8.0, 10 mM CaCl2, 25°C; substrate Nα-benzoyl-L-arginine 4-nitroanilide 0.1 to 0.8 mM; p-nitroaniline read at 405 nm for 5 min

| Binder | stoichiometry N [1] | Ki [2] |
| --- | --- | --- |
| B1 | 1 | 160 nM |
| B2 | – | 62000 nM |
| B3 | – | 260 nM |
| B4 | – | 290 nM |
